The labels stand for the following.
B1: TCR Clone 2 of Donor B24 in Table 2 (TCR, V domains shown)
V domain 1: AQKVTQAQTEISVVEKEDVTLDCVYETRDTTYYLFWYKQPPSGELVFLIRRNSFDEQNEISGRYSWNFQKSTSSFNFTITASQVVDSAVYFCALSEARGSQGNLIFGKGTKLSVKP
V domain 2: DTEVTQTPKHLVMGMTNKKSLKCEQHMGHRAMYWYKQKAKKPPELMFVYSYEKLSINESVPSRFSPECPNSSLLNLHLHALQPEDSALYLCASSQEAASGGLINEQFFGPGTRLTVLE
notes: also called Donor B24 Clone 2
B2: TCR Clone 1 of Donor N3M in Table 2 (TCR, V domains shown)
V domain 1: KQEVTQIPAALSVPEGENLVLNCSFTDSAIYNLQWFRQDPGKGLTSLLLIQSSQREQTSGRLNASLDKSSGRSTLYIAASQPGDSATYLCAVYSGAGSYQLTFGKGTKLSVIP
V domain 2: EAQVTQNPRYLITVTGKKLTVTCSQNMNHEYMSWYRQDPGLGLRQIYYSMNVEVTDKGDVPEGYKVSRKEKRNFPLILESPSPNQTSLYFCASRTGGVNEQYFGPGTRLTVTE
notes: also called Donor N3M Clone 1
B3: TCR Clone 2 of Donor B31 in Table 2 (TCR, V domains shown)
V domain 1: KQEVTQIPAALSVPEGENLVLNCSFTDSAIYNLQWFRQDPGKGLTSLLLIQSSQREQTSGRLNASLDKSSGRSTLYIAASQPGDSATYLCAPYSGAGAYQLTFGKGTKLSVIP
V domain 2: EAQVTQNPRYLITVTGKKLTVTCSQNMNHEYMSWYRQDPGLGLRQIYYSMNVEVTDKGDVPEGYKVSRKEKRNFPLILESPSPNQTSLYFCATRTGAVNEQFFGPGTRLTVLE
notes: also called Donor B31 Clone 2
B4: TCR Clone 3 of Donor B24 in Table 2 (TCR, V domains shown)
V domain 1: GDAKTTQPNSMESNEEEPVHLPCNHSTISGTDYIHWYRQLPSQGPEYVIHGLTSNVNNRMASLAIAEDRKSSTLILHRATLRDAAVYYCILRDVTGGFKTIFGAGTRLFVKA
V domain 2: EAQVTQNPRYLITVTGKKLTVTCSQNMNHEYMSWYRQDPGLGLRQIYYSMNVEVTDKGDVPEGYKVSRKEKRNFPLILESPSPNQTSLYFCASSYSGGPLYEQYFGPGTRLTVTE
notes: also called Donor B24 Clone 3
B5: TCR Clone 4 of Donor B24 in Table 2 (TCR, V domains shown)
V domain 1: GQQLNQSPQSMFIQEGEDVSMNCTSSSIFNTWLWYKQDPGEGPVLLIALYKAGELTSNGRLTAQFGITRKDSFLNISASIPSDVGIYFCAGRGSYNFNKFYFGSGTKLNVKP
V domain 2: EAQVTQNPRYLITVTGKKLTVTCSQNMNHEYMSWYRQDPGLGLRQIYYSMNVEVTDKGDVPEGYKVSRKEKRNFPLILESPSPNQTSLYFCASSYAGGPQYGYTFGSGTRLTVVE
notes: also called Donor B24 Clone 4
B6: TCR Clone 1 of Donor B24 in Table 2 (TCR, V domains shown)
V domain 1: TGQNIDQPTEMTATEGAIVQINCTYQTSGFNGLFWYQQHAGEAPTFLSYNVLDGLEEKGRFSSFLSRSKGYSYLLLKELQMKDSASYLCAVGGNTGGFKTIFGAGTRLFVKA
V domain 2: DSGVTQTPKHLITATGQRVTLRCSPRSGDLSVYWYQQSLDQGLQFLIQYYNGEERAKGNILERFSAQQFPDLHSELNLSSLELGDSALYFCASSAGQGLAGDEQFFGPGTRLTVLE
notes: also called Donor B24 Clone 1
B7: TCR Clone 3 of Donor A5L in Table 2 (TCR, V domains shown)
V domain 1: TGQNIDQPTEMTATEGAIVQINCTYQTSGFNGLFWYQQHAGEAPTFLSYNVLDGLEEKGRFSSFLSRSKGYSYLLLKELQMKDSASYLCAVNGGTGGFKTIFGAGTRLFVKA
V domain 2: DSGVTQTPKHLITATGQRVTLRCSPRSGDLSVYWYQQSLDQGLQFLIQYYNGEERAKGNILERFSAQQFPDLHSELNLSSLELGDSALYFCASSVGEGLAGDTQYFGPGTRLTVLE
notes: also called Donor A5L Clone 3
B8: TCR Clone 1 of Donor B31 in Table 2 (TCR, V domains shown)
V domain 1: AQTVTQSQPEMSVQEAETVTLSCTYDTSENNYYLFWYKQPPSRQMILVIRQEAYKQQNATENRFSVNFQKAAKSFSLKISDSQLGDTAMYFCAFMTVYNQGGKLIFGQGTELSVKP
V domain 2: DTEVTQTPKHLVMGMTNKKSLKCEQHMGHRAMYWYKQKAKKPPELMFVYSYEKLSINESVPSRFSPECPNSSLLNLHLHALQPEDSALYLCASSQEAGRQNTQYFGPGTRLTVLE
notes: also called Donor B31 Clone 1

This assay addresses HLA-B*40:01-… (human; Epstein Barr Virus). The assay can be described thus: HLA-peptide multimer staining and single-cell sorting of CD8+ T cells, paired TCR sequencing.
Procedure: T cell lines were labelled with an allophycocyanin (APC)-conjugated HLA-peptide multimer (ProImmune Ltd., Oxford, UK) by incubation for 30 minutes at room temperature. Cells were then washed and incubated with Cy5.5-PerCP conjugated anti-human CD8 mAb (BioLegend, San Diego, Calif.) for 30 minutes at 4° C. Cells were washed, analyzed and sorted as single cells into 96-well PCR plates (Eppendorf, Hamburg, Germany) using the FACS Aria III flow cytometer (BD Biosciences).
Take B1: the binding result is given as “binds”.
On to B2, for which the binding result is on record as “binds”.
The result for B3 reads “binds”; that for B4, “binds”; that for B5, “binds”.
The value for B6 was “binds”; that for B7 was “binds”; that for B8 was “binds”.

These data come from patent publication US20210380657A1 (COUNCIL OF THE QUEENSLAND INSTITUTE OF MEDICAL RESEARCH, published 2021).
